Test results taken from PMC11481066.
pKd: −log10 of the molar value.

Target: SARS-CoV-2 spike protein receptor binding domain, Delta variant subvariant Δ1 (B.1.617.2) (UniProt P0DTC2)
Assay: BLI
Settings: parent: 168.4

Question: How did the pKd turn out when ab8 nanobody, wild type E127W was run?
Answer: The pKd was 9.23.
